# Data: the Human Domainome abundance scans (Beltran et al. 2025)
# ± gives the uncertainty stated by the source.
# B1: Homeobox protein cut-like 2, residues 895 to 963; numbered along this chain, O14529 (parent)
# chain: EVDTLELTRQVKEKLAKNGICQRIFGEKVLGLSQGSVSDMLSRPKPWSKLTQKGREPFIRMQLWLSDQL
# Variants of: B1
# Assay: abundance fitness (aPCA) (normalised: wild type 0, dead -1); higher = more abundant; growth selection in yeast, the domain comes from the species named
# Details: Homo sapiens
row,Variant,abundance fitness
1,E6H,-0.142 ± 0.34
2,E6Y,-0.158 ± 0.059
3,E6M,-0.192 ± 0.035
4,E6G,-0.111 ± 0.027
5,E6V,-0.191 ± 0.028
6,E6Q,-0.258 ± 0.12
7,E6K,-0.035 ± 0.045
8,E1F,-0.079 ± 0.17
9,E1D,-0.457 ± 0.093
10,E1A,-0.122 ± 0.054
11,E1H,-0.149 ± 0.27
12,E1T,-0.247 ± 0.075
13,S48W,-0.387 ± 0.079
14,S48L,-0.191 ± 0.027
15,S48T,-0.085 ± 0.042
16,S48I,-0.223 ± 0.047
17,S48K,-0.088 ± 0.042
18,S48R,-0.13 ± 0.05
19,E56P,-0.605 ± 0.047
20,E56S,-0.203 ± 0.036
21,E56H,-0.446 ± 0.077
22,K12R,-0.187 ± 0.031
23,K12T,-0.271 ± 0.045
24,K12F,-0.748 ± 0.045

row,Variant,abundance fitness
1,K12S,-0.387 ± 0.032
2,K12W,-0.547 ± 0.031
3,Q62D,-0.654 ± 0.16
4,Q62A,-0.098 ± 0.035
5,Q62P,-0.84 ± 0.041
6,Q62N,-0.401 ± 0.16
7,A16Q,-0.063 ± 0.044
8,A16N,-0.189 ± 0.15
9,A16T,-0.062 ± 0.04
10,K49S,-0.079 ± 0.03
11,K49I,-0.112 ± 0.042
12,K49F,-0.281 ± 0.044
13,G19N,-0.007 ± 0.076
14,G19W,-0.341 ± 0.06
15,G19K,0.009 ± 0.041
16,G19L,-0.31 ± 0.025
17,G19P,-0.005 ± 0.15
18,F58M,-0.502 ± 0.076
19,F58N,-1.1 ± 0.3
20,F58W,-0.111 ± 0.046
21,Q10A,-0.23 ± 0.092
22,Q10P,-0.158 ± 0.039
23,Q10H,-0.228 ± 0.057
24,Q10F,-0.244 ± 0.04

row,Variant,abundance fitness
1,Q10L,-0.018 ± 0.026
2,Q10R,-0.038 ± 0.055
3,Q10M,0.082 ± 0.033
4,S66H,0.005 ± 0.092
5,S66A,-0.045 ± 0.069
6,S66F,-0.2 ± 0.053
7,S66Q,0.002 ± 0.035
8,S66M,-0.085 ± 0.032
9,S66V,-0.066 ± 0.037
10,L30G,-0.387 ± 0.032
11,L30I,-0.301 ± 0.049
12,L30S,-0.418 ± 0.049
13,L30D,-0.588 ± 0.048
14,T8W,-0.206 ± 0.032
15,T8Y,-0.309 ± 0.056
16,R43C,-0.14 ± 0.072
17,R43Q,-0.066 ± 0.044
18,R43G,-0.233 ± 0.042
19,R43N,-0.03 ± 0.078
20,R43T,-0.162 ± 0.036
21,R55D,-0.954 ± 0.094
22,R55T,-0.359 ± 0.058
23,R55V,-0.487 ± 0.031
24,R55Q,-0.303 ± 0.042

row,Variant,abundance fitness
1,R55L,-0.486 ± 0.029
2,R55G,-0.674 ± 0.06
3,L65H,-0.696 ± 0.08
4,L65Y,-0.56 ± 0.053
5,L65I,-0.278 ± 0.065
6,L65K,-0.726 ± 0.045
7,L65S,-0.962 ± 0.049
8,L65T,-0.975 ± 0.058
9,D3N,-0.001 ± 0.056
10,D3K,-0.203 ± 0.032
11,D3R,-0.316 ± 0.043
12,T51C,-0.375 ± 0.26
13,T51D,0.117 ± 0.062
14,T51E,-0.403 ± 0.056
15,T51P,-0.355 ± 0.035
16,T51I,-0.007 ± 0.053
17,T51L,-0.082 ± 0.033
18,Q68R,-0.057 ± 0.044
19,K45Y,-0.265 ± 0.066
20,K45T,-0.149 ± 0.055
21,K45R,0.128 ± 0.14
22,K45Q,-0.132 ± 0.059
23,T4Y,-0.468 ± 0.068
24,T4L,-0.215 ± 0.027

row,Variant,abundance fitness
1,T4I,-0.126 ± 0.059
2,T4F,-0.006 ± 0.063
3,T4Q,-0.254 ± 0.033
4,T4M,0.037 ± 0.03
5,T4D,-0.092 ± 0.066
6,T4K,-0.14 ± 0.035
7,T4C,-0.3 ± 0.073
8,T4R,-0.13 ± 0.035
9,T4V,-0.221 ± 0.031
10,S38R,0.024 ± 0.028
11,S38F,-0.221 ± 0.26
12,S38N,0.012 ± 0.027
13,S38P,-0.209 ± 0.026
14,S38Y,-0.008 ± 0.32
15,L5K,0.102 ± 0.031
16,L5W,-0.021 ± 0.033
17,L5E,0.083 ± 0.031
18,L5I,0.024 ± 0.045
19,L5S,-0.231 ± 0.03
20,L15T,-0.343 ± 0.32
21,L15S,-0.087 ± 0.053
22,L15C,-0.123 ± 0.043
23,L15W,-0.338 ± 0.034
24,G35T,0.039 ± 0.048

row,Variant,abundance fitness
1,G35N,0.044 ± 0.088
2,G35K,0.124 ± 0.043
3,G35F,-0.079 ± 0.037
4,G35I,-0.215 ± 0.062
5,G35H,-0.043 ± 0.04
6,G35D,-0.125 ± 0.07
7,K14N,-0.249 ± 0.081
8,K14V,-0.03 ± 0.037
9,K14G,-0.589 ± 0.16
10,K14E,-0.073 ± 0.071
11,K14D,-0.55 ± 0.12
12,K14F,0.102 ± 0.056
13,K14M,0.066 ± 0.033
14,W64D,-1.06 ± 0.2
15,W64Q,-0.907 ± 0.066
16,W64F,-0.222 ± 0.082
17,W64R,-0.945 ± 0.063
18,L63T,-0.003 ± 0.038
19,L63H,0.012 ± 0.04
20,L63G,-0.19 ± 0.2
21,L63F,-0.274 ± 0.046
22,L63M,0.041 ± 0.047
23,L63E,0.037 ± 0.11
24,L63P,-0.728 ± 0.033

row,Variant,abundance fitness
1,P57H,-0.026 ± 0.041
2,P57G,-0.456 ± 0.32
3,P57K,-0.058 ± 0.066
4,P57F,-0.028 ± 0.051
5,G54H,-0.215 ± 0.074
6,G54S,-0.092 ± 0.032
7,G54L,-0.011 ± 0.029
8,G54M,0.004 ± 0.039
9,G54Y,-0.165 ± 0.059
10,N18T,0.022 ± 0.035
11,N18D,-0.153 ± 0.081
12,N18A,-0.119 ± 0.044
13,N18C,-0.354 ± 0.091
14,K17S,-0.208 ± 0.051
15,K17Q,0 ± 0.051
16,K17R,-0.089 ± 0.055
17,K17G,-0.234 ± 0.043
18,K17P,-0.411 ± 0.092
19,P46T,-0.08 ± 0.036
20,P46L,0.026 ± 0.032
21,P44N,-0.385 ± 0.11
22,P44T,-0.101 ± 0.043
23,P44C,-0.153 ± 0.054
